Data reported in patent US11685786 (MERUS N V, dated 2023).

B1: MF6825 x MF6825 bivalent monospecific CD137 IgG (antibody, V domains shown)
VH: QITLKESGPTLVKPTQTLTLSCTFSGFSLSTSGMSVGWIRQPPGKALEWLALIYWNDDKYFSPSLKSRLTITKDTSKNQVVLTLTNMDPVDTATYYCAHTLWGSDDVFDVWGQGTMVTVSS
VL: not shown
notes: bivalent IgG; also called PB14162; copies: 2 + 2
B2: MF6744 x MF6744 bivalent monospecific CD137 IgG (antibody, V domains shown)
VH: EVQLVQSGAEVKKPGESLKISCKGSGYSFTSYWIGWVRQMPGKGLEWMGIIFPDDSDTRYSPSFQGQVTISADKSISTAYLQWSSLKPSDTAMYYCVRLGGYSGYAEDFVDFWGQGTLVTVSS
VL: not shown
notes: bivalent IgG; also called PG6744; PB14135; copies: 2 + 2
B3: MF6783 x MF6783 bivalent monospecific CD137 IgG (antibody, V domains shown)
VH: QVQLVQSGSELKKPGASVKVSCKASGYTFTNFAMNWVRRAPGQGLEWMGWINTNTGNPTYAQGFTGRFVFSLDTSVNTAYLQISSLKAEDTAVYYCARDWGVIGGHYMDVWGKGTTVTVSS
VL: not shown
notes: bivalent IgG; also called PG6783; PB14143; copies: 2 + 2
B4: MF6861 x MF6861 bivalent monospecific CD137 IgG (antibody, V domains shown)
VH: QVQLVQSGAEVKKPGASVKVSCKASGYTFTSYGISWVRQAPGQGLEWMGWISAYNGNTNYAQKLQGRVTMTTDTSTSTAYMELRSLRSDDTAVYYCARDSDGYGPKAFDYWGQGTLVTVSS
VL: not shown
notes: bivalent IgG; copies: 2 + 2
B5: MF6798 x MF6798 bivalent monospecific CD137 IgG (antibody, V domains shown)
VH: QVQLVQSGSELKKPGASVKVSCRASGYTFTNFAMTWVRQAPGQGPEYMGWINTNTGNPTYAQGFTGRFVFSLDTSVNTAYLQISSLKAEDTAVYYCARDWASVMVRGDLDYWGQGTLVTVSS
VL: not shown
notes: bivalent IgG; copies: 2 + 2
B6: MF6795 x MF6795 bivalent monospecific CD137 IgG (antibody, V domains shown)
VH: EVQLVQSGAEVKKPGESLKISCKGSGYSFTSYWIGWVRQMPGKGLEWMGIIYPDDSDTRYSPSFQGQVTISADKSSSTAYLQWSSLKASDTAMYYCASFYTGIVGATGAFDVWGQGTTVTVSS
VL: not shown
notes: bivalent IgG; copies: 2 + 2
B7: MF6788 x MF6788 bivalent monospecific CD137 IgG (antibody, V domains shown)
VH: EVQLVQSGSELKKPGASVKVSCKASGYTFTNFAMNWVRQAPGQGLEWMGWINTNTGNPTYAQDFTGRFVFSLDTSGNTAYLQISSLKAEDTAVYYCARDWGLVAIGYFDYWGQGTLVTVSS
VL: not shown
notes: bivalent IgG; also called PB14193; copies: 2 + 2

Target: T1, recombinant huCD137-Fc (R&D; cat. no. 838-4B) (human, UniProt Q07011 24-186)
T1 construct: Bought; not shown: Fc of bought fusion protein, not described
Assay: competition ELISA: CD137L-muCD8 biotin on coated CD137-Fc, IgG 20 ug/ml

Binder	% CD137L block [%]
B1	89
B2	67
B3	44
B4	50
B5	44
B6	32
B7	55

Target: T1, recombinant huCD137-Fc (R&D; cat. no. …)
Assay: CD137L blocking assay; competitor CD137L; format not told in the excerpt

Binder	% CD137L block [%]
B1	89
B2	67
B3	44
B4	50
B5	44
B6	32
B7	55
